Assay results published in article PMC9458432 (Nucleic Acids Research, 2022).
Substitutions are numbered along the chain they refer to.

Assays:
[1] = target: T1, ΔFOSB Cys172Ser/JUND heterodimers (Mus musculus, UniProt P13346+P15066, C172S); test: FP dose-response against ΔFOSB Cys172Ser/JUND heterodimers; assay type: binding; details: 50 nM TMR-cdk5, 280 nM protein, compound 0–200 μM
T1 sequence (P13346 2-237 isoform P13346-2 C172S): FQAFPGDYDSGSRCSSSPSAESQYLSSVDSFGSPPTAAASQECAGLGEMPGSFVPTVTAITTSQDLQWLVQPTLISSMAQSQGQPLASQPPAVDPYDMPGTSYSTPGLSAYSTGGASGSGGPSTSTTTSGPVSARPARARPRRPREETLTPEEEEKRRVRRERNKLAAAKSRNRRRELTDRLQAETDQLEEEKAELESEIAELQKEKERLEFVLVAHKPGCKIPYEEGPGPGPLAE
T1 sequence (P15066 2-341): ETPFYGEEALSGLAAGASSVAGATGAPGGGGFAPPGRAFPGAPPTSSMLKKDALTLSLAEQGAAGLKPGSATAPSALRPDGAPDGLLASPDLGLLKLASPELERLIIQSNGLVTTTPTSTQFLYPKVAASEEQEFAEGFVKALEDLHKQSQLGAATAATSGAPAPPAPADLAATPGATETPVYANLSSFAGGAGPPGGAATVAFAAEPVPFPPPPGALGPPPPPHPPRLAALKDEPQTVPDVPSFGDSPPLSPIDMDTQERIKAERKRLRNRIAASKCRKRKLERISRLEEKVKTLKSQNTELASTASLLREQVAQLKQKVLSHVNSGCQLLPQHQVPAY

[2] = target: T2, ΔFOSB Cys172Ser homomers (Mus musculus, UniProt P13346, C172S); test: FP dose-response against ΔFOSB Cys172Ser homomers; assay type: binding; details: 50 nM TMR-cdk5, 280 nM protein, compound 0–200 μM
T2 sequence (P13346 2-237 isoform P13346-2 C172S): T1 sequence (P13346 2-237 isoform P13346-2 C172S)

[3] = target: T3, ΔFOSB (N(His)6-ΔFOSB) (mouse, UniProt P13346-2 2-237); test: fluorescence polarization
T3 sequence: T1 sequence (P13346 2-237 isoform P13346-2 C172S) with S171C

[4] = target: T4, ΔFOSB (N(His)6-ΔFOSB);JUND (N(His)6-JUND) (mouse;mouse, UniProt P13346-2;P15066 2-237;2-341, |); test: fluorescence polarization
T4 sequence 1: T1 sequence (P13346 2-237 isoform P13346-2 C172S) with S171C
T4 sequence 2: T1 sequence (P15066 2-341)

[5] = target: T5, ΔFOSB Cys172Trp (mouse, UniProt P13346-2 2-237, C172W); test: fluorescence polarization
T5 sequence: T1 sequence (P13346 2-237 isoform P13346-2 C172S) with S171W

[6] = target: T4, ΔFOSB (N(His)6-ΔFOSB);JUND …; test: EMSA

With `O=C(O)CCc1cc(C(=O)c2ccc(OC3CCCC3)cc2O)ccc1OCc1ccc2c(=O)[nH]oc2c1` [Compound T5224] the “Disruption of DNA binding to ΔFOSB Cys172Ser/JUND heterodimers” value [1] was “similarly well as to the wild-type species” and the “Disruption of DNA binding to ΔFOSB Cys172Ser homomers” value [2] was “similarly well as to the wild-type species”.

B1: TMR-cdk5 (dsDNA)
DNA 1: CGTCGGTGACTCAAAACAC
DNA 2: GTGTTTTGAGTCACCGACG
B1: binds [3]; binds [4]; binds [5].

B2: BIO-cdk5 (dsDNA)
DNA 1: CGTCGGTGACTCAAAACAC
DNA 2: GTGTTTTGAGTCACCGACG
B2: binds [6].
